As a reminder, the Kd is the equilibrium constant for the complex coming apart. Usually koff stands for a measure of how fast the partners let go of each other. The low end stands for a long-lived complex, the high end for a short-lived complex. A word on the kon: it is a measure of how fast the partners come together. Low values mean slow association, high ones fast association.

Assay [1] concerns the target human IL-13 (Homo sapiens) (UniProt P35225). Kind of assay: SPR. (In SPR one partner is held on a chip, and binding of the other changes the refractive index at the surface.)
Assay [2] addresses anti-IL-13 IgG4 variant VH Y98L (human (humanized antibody)). Kind of assay: SPR.

In assay [1], “anti-IL-13 IgG4 variant VH Y100Q (antibody)” came in with a Kd of 3.32 nM and a koff of 0.00331 s⁻¹.
With “anti-IL-13 IgG4 variant VH Y97L (antibody)”, in assay [1], the Kd is under 0.01 nM, the dissociation rate constant (koff) was under 0.0001 s⁻¹ and the kon was 2.08e+06 M⁻¹ s⁻¹.
In assay [2], “human IL-13 (from UniProt P35225 25-146) (ligand)” returned a Kd of 0.0753 nM, a koff of 8.76e-05 s⁻¹ and a kon of 1.16e+06 M⁻¹ s⁻¹.
Consider “anti-IL-13 IgG4 (lebrikizumab), parent (antibody)”, for which, in assay [1], the kon is 2.16e+06 M⁻¹ s⁻¹.

Values taken from paper PMC6927759.
